# Data reported in the nanobody polyreactivity screen of Harvey et al. (2022).
# Experiment: yeast display, Sf9 membrane polyspecificity reagent, FACS + sequencing; frameworks hold sequencing errors
# Summary of the method: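 A synthetic nanobody library was expressed on Saccharomyces cerevisiae BJ5465 by galactose induction for 36–48 hours. The library was stained for 1 hour at 4 °C with 10% biotinylated, detergent-solubilized Sf9 membrane reagent and enriched with streptavidin microbeads before FACS. Low and high (top ~1%) gates were set on anti-HA fluorescence for expression and streptavidin fluorescence for reagent binding, and each polyreactivity label reflects the gate of origin.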
row,Sequence,polyreactivity (PSR sort gate)
1,QVQLVESGGGLVQAGGSLRLSCAASGRTFGRYAMGWYRQAPGKERELVATISSRGGNTYYADSVKGRFTISRDNAKNTVYLQMNSLKPEDTAVYYCAAQTYKWYDWGQGTQVTVSS,high polyreactivity
2,QVQLVESGGGLVQAGGSLRLSCAASGFTFRGNAMGWYRQAPGKERELVATISRGGNTNYADSVKGRFTISRDNAKNTVYLQMNSLKPEDTAVYYCAAVSYIRSKVAYNYWGQGTQVTVSS,low polyreactivity
3,QVQLVESGGGLVQAGGSLRLSCAASGSIFDPYAKGWYRQAPGKEREFVAAITGSGGSTSYADSVKGRFTISRDNAKNTVYLQMNSLKPEDTAVYYCAARRTVEWGQGTQVTVSS,high polyreactivity
4,QVQLVESGGGLVQAGGSLRLSCAASGSTFVTYAMGWYRQAPGKERELVAAISRSGGSTYYADSVKGRFTISRDNAKNTVYLQMNSLKPEDTAVYYCAAVIYPYYSYAHRYDYWGQGTQVTVSS,low polyreactivity
5,QVQLVESGGGLVQAGGSLRLSCAASGLIFPGYAMGWYRPAPGKERELVAAISGSGGSTYYADSVKGRFTISRDNAKNTVYLQMNSLKPEDTAVYYCSTSGPQYYSRNFDYWGQGTQVTVSS,low polyreactivity
6,QVQLLESGGGLVPSRGSLRLSCAASGFIFGHNTMGWYRQAPGKERELVARITSSGGGTNYADSVKGRFTISRDNAKNTVYLQMNSLKPEDTAVYYCAAELLYWGYYDYDYWGQGTQVTVSS,high polyreactivity
7,QVQLVESGGGLVQAGGSLRLSCAASGSTFYPYAMGWYRQAPGKERELVAAISSGGSTNYADSVKGRFTISRDNAKYTVYLQMNSLKPEDTAVYYCAAASGSRRHGYWGQGTQVTVSS,high polyreactivity
8,QVQLVESGGGLVQAGGSLRLSCAASGRIFYYNDMGWYRQAPGKERELVATITIGNSTNYADSVKGRFTISRDNAKNTVYLQMKSLKPEDTAVYYCNADYSDVTTGDWRYENDYWGQGTQVTVSS,low polyreactivity
9,QVQLHESGGGLVQAGGGLRLTCAASGSISSTGFMGWYRQAPCKELEPVAAIAPGPTTYYADSGKGRFTISRDNAKNTVYLQMTSPRPEDTAVNYGAVFTDNRVAFLYWGQGTQVTVSS,low polyreactivity
10,QVQLVESGGGLVQAGGSLRLSCAASGSTFGYYGMGWYRQAPGKERELVAAISTGGRTNYADSVKGRFTISRDNAKNTVYLQMNSLKPEDTAVYYCAADFLSPAYRPSWYRFDYWGQGTQVTVSS,low polyreactivity
11,QVQLVESGGGLVQARGSLRLSCAASVRTICNNAMGWYREAPGKERELVAANTSTASRTYYADSEKGRFTISRDNAKNTVYLQMNSLKPEDTAVYYCNRVSHLDYYWGQGTQVTVSS,high polyreactivity
12,QVQLVESGGGLVQAGGSLRLSCAASGFIFWLNAMGWYRQAPGKERELVAAISIGGRTNYADSVKGRFTISRDNAKNTVYLQMNSLKPEDTAVYYCNKDYRSVYKGRGFDYWGQGTQVTVSS,low polyreactivity
13,QVQLVESGGGLVQAGGSLRLSCAASGRTFGLYAMGWYRQAPGKERELVATITTSDIMTYYADSVKGRFTISRDNAKNTVYLQMNRLKPEDTAVYYCATGGYDDFSSRPANDYWGQGTQVTVSS,low polyreactivity
14,QVQLVESGGGLVQAGGSLRLSCAASGSTFYRNAMGWYRQAPGKERELVAAITSRGTRTFYADSVKGRFTISRDNAKNTVYLQMNSLKPEDTAVYYCAVTYQAEYEYDYWGQGTQVTVSS,low polyreactivity
15,QVQLVESGGGLVQAGGSLRLSCASSGRISYRNAMGWYRQAPGKERELVAAISSSGDSTYYADAVKGRFTISRDNAKNTVYLQMNSLKPEDTAVYYCAARHSAVYYGYHRYYYWGQGTQVTVSS,high polyreactivity
16,QVQLVESGGGLVQAGGSLRLSCAASGRIFRFYAMGWYRQAPGKERELVAAISWRGGRTYYADSVKGRFTISRDNAKNTVYVQMNSLKPEDTAVYYCNADKYETSGWKYVSWGQGTQVTVSS,low polyreactivity
17,QVQLVESGGGLVQAGGSLRLSCAASGSTSWSNARGWYRQAPGKERELLAAITTGASTYYADSVKGRFTMSRDNAKNTVYYQMNSLKPEDTAVYYCAADPWVLWSYYYWGQGTQVTVSS,low polyreactivity
18,QVHLVESGGGLVQAGGSLRLSCAASGRIFVRYAMGWYRQAPGKERELVATISGGRTNYADSVKWRFTISRDNAKNSVYLQMNSLKPEDTAVYYCAVGSHSRSSNSYYYWGQGSQVTVSS,low polyreactivity
19,QVQLVESGGGLVQAGGSLRLICAASGFTFASNAMGWYRQATGKERELVAAITTSGGSTYYADSVKGRFTISRDNAKNTVYLQMNSLKPEDTSVYYCADRATSRRPYSYGSWGQGTQVTVSS,high polyreactivity
20,QVQLVESGGGLVQAGGSLRLSCAASGRTFTWNVMGWYIQAPGKERELVAAISSSGGDTYYADSVKGRFTISRDNAKNTVYLHMNSLKPEDTAVYYCAAGQVYSGYEYWGQGTQVTVSS,low polyreactivity
21,QVQLVESGGGLVQAGGSLRLSCAASGFTFFNYGRGWSRQAHGKERELVAAISSNGGLTYYADSVKGRFTISRDNAKNTVYLQMNSLKPEDTAVYYCATLYYGRVDYDYWGQGTQVTVSS,high polyreactivity

row,Sequence,polyreactivity (PSR sort gate)
1,QVQLVESGGGLVQAGGSLRLSCAASGNTFDSYVMGWYRQAPGKERELVAAISYRGGSTYYADSVKGRFTISRDNAKNTVYLQMNSLKPEDSAVYFCAADYFYYVYSYWYDSWGQGTQVTVSS,high polyreactivity
2,QVQLVESGGGLVQAGGSLSLSCAASGRIFGHNAMGWYRQAPGKERELVATISSGVRTNYADSVKGRFTISRDNAKNTVYLQMNSLKPEDTAVYYCATKTYQFGYSSYYYWGQGTQVTVSS,high polyreactivity
3,QVQLVESGGGLVQAGGSLRLSCAASGRIFVSNAMGWYRQAPGKERELVAGINSGDRTYYADSVKGRFTISRDNAKNTVYLQMNSLNPEDTAVYYFADSSRRGTGLRYYWGQGTQVTVSS,high polyreactivity
4,QVQLVESGGGLVQAGGSLRLSCAASGSIFSQYAMGWYRPAPGKERELVAAISRSGGRTSYADSVKGRFTISRDNAKNTVYLQMNSLKPEDTAVYYCAARGPTNMGYWGQGTQVTVSS,high polyreactivity
5,QVQLVESGGGLVQAGGSLRLSCAASGRTFASNDMGWYRQAPGKERELVADINNGARTYYADSVKGRFTISRDNAKNTVYLQMNSLKPEDTAVYYCNARPWYWWEGRYDYWGQGTQVTVSS,high polyreactivity
6,HVQLVDSGGGLVQAGGSLRLTCAASGNIFVPYAMGWYRQAPGKERELVAAINGGGSTNYADSLKGRFTISRDNAKNTVYLQMNSLKPEDTAVYYCAAVWYFLSLWYDYWGQGTQVTVSS,high polyreactivity
7,QVQLVESGGGLVQAGGSLRLSCAASGSTCTGYTMGWYRQAPGNERELVAAITYRGGSTYYADSVKGRFTISRDNAKNTVYLQKNSLKPEETAVYYCAAVPEYYEYSPYDYWGQGTQVTVSS,low polyreactivity
8,QVQLVESGGGLVQAGVSLRLSCAASGNTFWVYAKGSYRQAPGKARELVAAMTRGGSTNYEDSVKGRFTISRDNAKNTVYFQMNSLKPEDTAGYYCAAESFIYFPYKMDYWGQGTQVTVSS,low polyreactivity
9,QVQLVESGGGLVQAGGSHRLSCAASGRTFYINAMGWYRQAPGKERELVAAISIRGGGTYYADSVKGRFTISRDNAKNTVYLQMNSLKPEDTAVYYCAAEYTEGYTHDYWGQGTQVTVSS,low polyreactivity
10,QVQLVESGGGLVQAGGSLRLRCAASGSNFDTYAMGWYRQAPGKERELDAAINSGGGTNYADSVKGRFTISRDNANNTVYLQMNSLKPEDTAVYYCATDIRREAGGGDFDYWGQATQVTVSS,low polyreactivity
11,QVQLVESGGGLVQAGGSLRLSCAASGFTFRGNVMGWYRQAPGKERELVAGISSTGSTYYADSVKGRFTISRDNAKNTVYLQMYSVKPVDTAVYYCAAAAIYFRYDYWGQGTQVTVSS,high polyreactivity
12,QVQLVESWGGLVQAGGSLRLSCAASGSTISANALGWDRQAPGTEREWVASISRRGGSPYYADSVKGRFTISRDKATNTVYLQMNSLKPEDTAVYYSGAVFRYYARTFDYWGQGTQVSVSS,high polyreactivity
13,QVQLVESGGGLVQAGGSLRLSCAASGSIFTFYAMGWYRQAPGKERELVASITSGAGITYYADSVKGRFTISRDNAKNTVYLQMNSLKPEDTAVYYCAADWSGDFFTDGYWGQGTQVTVSS,low polyreactivity
14,QVQLVESGGGLVQAGGSLRLSCAASGFTFAVFARGWYRQAPGKERELVAAISRTGTRTYYADSVKGRFTISRDNAKNTVYLQMNSLKPEDTAVYYWAADKYRHGYDYWGQGTQVTVSS,low polyreactivity
15,QVQLVESGGGLVQAVGTLRLSCAASGSIFGYNAMGWYRHAPAKEREFVAAIRWSSGSTYYADSVKGRFTISRDNAMNTVFLQMNSLKPEDTAVNYCATRQTYLYWGQGTQVTVSS,high polyreactivity
16,QVQIVESGGRLVQAAGRLSLTCAASGSIFVWNAMGWYRQEPGKEREVVAAITNIGGRTYYADSVKGRFTISRDNAKYTVYLQMNSQKPEATAGYYCNSDLVSRLGWSTTSDSWGQGTQVTVSS,high polyreactivity
17,QVQLVESGGGLVQAGGSLRLICAASGRIFNYNYMGLYRQAPGKERELLAAISWRGGSTYYADSVKGRFTISRDNAKNTVYLQMKSLKPEDTAVYYCNKRTRYSTGSRYDYWGQGTQVTVSS,high polyreactivity
18,QVQLVESGGGLVQAGGSLRLSCAASGSTFPFYAMGWYRQAPGKERELVATISSDGSTNYADSVKGRFTISRDNAKNTDYLQMNSLKPEDTAVYYCNALARWCAYYDYGYWGQGTQVTVSS,low polyreactivity
19,QVQLQESGGGLVQAGGSLLSCAASGTISYYREMGWYRQAPGKERELVAGIGVGTITYYADSVKGRFTISRDNAKNTVYLQMNSLKPEDTAVYYCAALIDGNDSHAYWGQGTQVTVSS,low polyreactivity
20,QVQLVESGGGLVQAGGSLRLICADSGRILGINAMGWYRQAPGKERELVAAISSGGSTYYADSVKGRFTISRDNAKNTVYLQMNSLKPEDTAVYYCNVGSYAGWSDHPRYGYWGQGTQVTVSS,high polyreactivity
